Experimental data taken from publication PMC8927995.

Target: PspR, DTG rhodopsin from Pseudomonas putida (Pseudomonas putida)
Assay: crystal structure

Substance: PspR, DTG rhodopsin from Pseudomonas putida (natural protein)
- stoichiometry N: 3
